These results are taken from patent US20220135684A1 (published 2022).

Assay [1] deals with T1, human CD28 (human, UniProt P10747 19-152). As to the kind of experiment: Octet; avid.
Assay [2] addresses T2, cynomolgus PDL1 antigen (cynomolgus, UniProt G7PSE7 19-238). The assay can be described thus: SPR (Biacore); EXP2. (In SPR one partner is held on a chip, and binding of the other changes the refractive index at the surface.)
In assay [3] the target is T1, human CD28. The assay can be described thus: -; scFv VHVL in 1+1 Fab-scFv-Fc bsAb.
Assay [4] addresses T1, human CD28. As to the kind of experiment: BLI (Octet); average of HIS1K and SA capture.
Assay [5] deals with T1, human CD28.
The target of assay [6] is T2, cynomolgus PDL1 antigen. As to the kind of experiment: SPR (Biacore); EXP1.
For assay [7], the target named is T3, human PDL1 antigen (human, UniProt Q9NZQ7 19-238).
Assay [8] concerns the target T3, human PDL1 antigen. As to the kind of experiment: SPR (Biacore); EXP1.

What is called Kd is the constant that tells how readily two partners part at equilibrium.

Where a chain is given by its changes, count along the chain named. Where two headings read alike, the source gives them in different places.

B1: XENP28428 (antibody, V domains shown)
VH: EVQLLESGGGLVQPGGSLRLSCAASGFTFSSYAMSWVRQAPGKGLEWVSTISGSGDSTYYADSVKGRFTISRDNSKNTLYLQMNSLRAEDTAVYYCAKSGPGLRQVGFDYWGQGTLVTVSS
VL: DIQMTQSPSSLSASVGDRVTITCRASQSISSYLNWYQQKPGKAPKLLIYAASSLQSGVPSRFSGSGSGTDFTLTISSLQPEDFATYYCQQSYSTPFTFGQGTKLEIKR
For B1, binding with human CD28 [1] was put at a Kd of 14.5 nM.

B2: αPDL1×αCD28 bsAb with PDL1 binding domain 2G4_H1.12_L1.66 and CD28 binding domain 1A7_H1.14_L1.71 (bispecific antibody)
heavy: EVQLLESGGGLVQPGGSLRLSCAASGFTFSVYDMSWVRQAPGKRLEWVSTISSGGSFTHYPDSVKGRFTISRDNSKNTLYLQMNSLRAEDTAVYYCVRRSLDWYFDVWGAGTTVTVSSASTKGPSVFPLAPSSKSTSGGTAALGCLVKDYFPEPVTVSWNSGALTSGVHTFPAVLQSSGLYSLSSVVTVPSSSLGTQTYICNVNHKPSDTKVDKKVEPKSCDKTHTCPPCPAPPVAGPSVFLFPPKPKDTLMISRTPEVTCVVVDVKHEDPEVKFNWYVDGVEVHNAKTKPREEEYNSTYRVVSVLTVLHQDWLNGKEYKCKVSNKALPAPIEKTISKAKGQPREPQVYTLPPSREEMTKNQVSLTCDVSGFYPSDIAVEWESDGQPENNYKTTPPVLDSDGSFFLYSKLTVDKSRWEQGDVFSCSVMHEALHNHYTQKSLSLSPGK
scFv-Fc: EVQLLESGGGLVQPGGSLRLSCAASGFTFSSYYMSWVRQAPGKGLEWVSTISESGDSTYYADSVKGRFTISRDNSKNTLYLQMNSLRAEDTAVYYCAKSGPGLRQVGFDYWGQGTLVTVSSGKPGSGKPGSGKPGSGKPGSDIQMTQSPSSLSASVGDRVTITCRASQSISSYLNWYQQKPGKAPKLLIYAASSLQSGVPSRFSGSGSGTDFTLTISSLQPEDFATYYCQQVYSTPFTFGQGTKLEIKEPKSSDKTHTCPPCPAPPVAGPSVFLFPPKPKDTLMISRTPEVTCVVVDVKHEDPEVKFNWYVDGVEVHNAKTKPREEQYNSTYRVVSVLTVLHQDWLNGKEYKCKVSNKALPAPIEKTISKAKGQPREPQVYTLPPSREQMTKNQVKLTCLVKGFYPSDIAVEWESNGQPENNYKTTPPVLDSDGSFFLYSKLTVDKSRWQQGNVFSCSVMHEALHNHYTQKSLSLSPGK
light: EIVLTQSPGTLSLSPGERATLSCRVSSSIQSTNLHWYQQKPGQSPRPLIYGTSNLATGVPVRFSGSGSGTDYTLTISRLEPEDFAVYYCQQWSSYPLYTFGGGTKVEIKRTVAAPSVFIFPPSDEQLKSGTASVVCLLNNFYPREAKVQWKVDNALQSGNSQESVTEQDSKDSTYSLSSTLTLSKADYEKHKVYACEVTHQGLSSPVTKSFNRGEC
The molecule B2 showed a Kd with cynomolgus PDL1 antigen [2] of 1.7 nM.

B3: αPDL1×αCD28 bsAb with PDL1 binding domain 2G4_H1.12_L1.68 and CD28 binding domain 1A7_H1.14_L1.71 (bispecific antibody)
heavy: B2 heavy
scFv-Fc: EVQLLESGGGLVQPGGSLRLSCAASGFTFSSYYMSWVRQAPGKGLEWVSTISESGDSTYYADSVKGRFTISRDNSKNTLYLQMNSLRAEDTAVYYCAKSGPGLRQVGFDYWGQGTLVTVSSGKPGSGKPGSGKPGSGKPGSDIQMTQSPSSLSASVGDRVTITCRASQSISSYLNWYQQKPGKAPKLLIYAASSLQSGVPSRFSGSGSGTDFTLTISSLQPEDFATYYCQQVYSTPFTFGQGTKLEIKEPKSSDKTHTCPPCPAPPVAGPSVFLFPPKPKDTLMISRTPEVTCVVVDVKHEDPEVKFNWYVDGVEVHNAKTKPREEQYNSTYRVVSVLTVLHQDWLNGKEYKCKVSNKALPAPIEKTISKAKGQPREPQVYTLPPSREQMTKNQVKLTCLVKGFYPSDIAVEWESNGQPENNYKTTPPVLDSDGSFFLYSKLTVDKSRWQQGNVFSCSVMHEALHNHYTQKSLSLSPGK
light: B2 light with T57S
B3 returned a Kd with cynomolgus PDL1 antigen [2] of 1.5 nM.

B4: XENP36233 (bispecific antibody)
heavy: B2 heavy with V31S, L101G
scFv-Fc: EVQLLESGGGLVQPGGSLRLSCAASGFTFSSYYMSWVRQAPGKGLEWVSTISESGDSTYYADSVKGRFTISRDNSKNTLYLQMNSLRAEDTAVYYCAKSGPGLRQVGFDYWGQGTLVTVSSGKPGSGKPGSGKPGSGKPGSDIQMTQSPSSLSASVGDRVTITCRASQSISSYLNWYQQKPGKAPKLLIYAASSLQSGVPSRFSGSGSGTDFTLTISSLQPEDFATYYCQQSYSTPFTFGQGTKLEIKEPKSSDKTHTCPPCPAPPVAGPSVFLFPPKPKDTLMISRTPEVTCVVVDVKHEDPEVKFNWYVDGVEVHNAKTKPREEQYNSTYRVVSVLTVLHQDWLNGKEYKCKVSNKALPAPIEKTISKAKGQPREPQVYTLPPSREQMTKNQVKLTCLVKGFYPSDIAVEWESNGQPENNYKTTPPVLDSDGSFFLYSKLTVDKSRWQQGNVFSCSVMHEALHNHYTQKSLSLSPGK
light: B2 light with Q30S, T32S, T57S
B4: the Kd with human CD28 [3] and in the assay with human CD28 [4] was 229 nM each time.

B5: XENP37560 (bispecific antibody)
heavy: B2 heavy with V31S, L101G
scFv-Fc: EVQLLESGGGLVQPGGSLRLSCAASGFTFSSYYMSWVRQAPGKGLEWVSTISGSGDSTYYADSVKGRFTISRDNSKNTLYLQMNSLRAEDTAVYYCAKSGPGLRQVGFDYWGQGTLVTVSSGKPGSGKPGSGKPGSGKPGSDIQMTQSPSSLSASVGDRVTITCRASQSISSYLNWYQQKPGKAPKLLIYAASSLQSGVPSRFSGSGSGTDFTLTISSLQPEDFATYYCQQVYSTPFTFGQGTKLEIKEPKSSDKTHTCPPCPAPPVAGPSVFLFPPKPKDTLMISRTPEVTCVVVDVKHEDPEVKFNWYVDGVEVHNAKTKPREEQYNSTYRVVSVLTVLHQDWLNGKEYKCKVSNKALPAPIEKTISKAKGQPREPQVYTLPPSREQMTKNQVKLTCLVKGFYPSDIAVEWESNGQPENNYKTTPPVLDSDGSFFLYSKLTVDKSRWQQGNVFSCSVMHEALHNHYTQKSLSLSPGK
light: B2 light with Q30S, T32S, T57S
As to B5, the Kd with human CD28 [3] and with human CD28 [4] was 91.6 nM throughout.

B6: αPDL1×αCD28 bsAb with PDL1 binding domain 2G4_H1.12_L1.14 and CD28 binding domain 1A7_H1.14_L1.71 (bispecific antibody)
heavy: B2 heavy
scFv-Fc: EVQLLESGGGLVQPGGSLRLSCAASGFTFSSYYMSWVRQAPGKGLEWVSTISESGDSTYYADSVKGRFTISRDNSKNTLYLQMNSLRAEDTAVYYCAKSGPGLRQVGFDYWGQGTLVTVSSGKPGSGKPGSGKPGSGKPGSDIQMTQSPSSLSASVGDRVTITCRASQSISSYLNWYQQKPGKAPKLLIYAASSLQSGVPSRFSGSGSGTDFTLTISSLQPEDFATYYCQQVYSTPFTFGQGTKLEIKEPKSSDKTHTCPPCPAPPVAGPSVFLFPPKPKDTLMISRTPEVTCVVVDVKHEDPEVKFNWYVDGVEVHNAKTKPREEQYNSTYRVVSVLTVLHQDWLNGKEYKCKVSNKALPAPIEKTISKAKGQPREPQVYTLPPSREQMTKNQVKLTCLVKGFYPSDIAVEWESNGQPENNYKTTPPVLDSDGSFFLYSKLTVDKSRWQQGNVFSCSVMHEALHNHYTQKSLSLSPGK
light: B2 light with T32S, T57S
In turn, B6 yielded a dissociation constant Kd with cynomolgus PDL1 antigen [2] of 0.8 nM.

B7: XENP38514 (bispecific antibody)
heavy: B2 heavy
scFv-Fc: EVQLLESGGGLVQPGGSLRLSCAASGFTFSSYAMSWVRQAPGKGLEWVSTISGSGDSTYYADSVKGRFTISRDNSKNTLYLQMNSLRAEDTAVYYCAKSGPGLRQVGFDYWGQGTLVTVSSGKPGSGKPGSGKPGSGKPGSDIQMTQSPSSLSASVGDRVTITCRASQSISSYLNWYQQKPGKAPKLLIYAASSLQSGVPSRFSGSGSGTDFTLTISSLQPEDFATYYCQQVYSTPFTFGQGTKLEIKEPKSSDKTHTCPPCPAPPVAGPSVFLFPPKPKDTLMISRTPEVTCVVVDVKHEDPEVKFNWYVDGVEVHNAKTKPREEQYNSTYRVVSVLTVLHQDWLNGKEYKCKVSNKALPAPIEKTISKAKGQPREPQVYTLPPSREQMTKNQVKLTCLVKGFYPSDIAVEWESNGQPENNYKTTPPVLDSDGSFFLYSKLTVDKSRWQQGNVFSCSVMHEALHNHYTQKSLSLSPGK
light: B2 light with N54V
For the molecule B7, the equilibrium dissociation constant (Kd) turned out to be 180 nM in the assay with human CD28 [5] and 0.38 nM with cynomolgus PDL1 antigen [6].

B8: XENP37559 (bispecific antibody)
heavy: B2 heavy with V31S, L101G
scFv-Fc: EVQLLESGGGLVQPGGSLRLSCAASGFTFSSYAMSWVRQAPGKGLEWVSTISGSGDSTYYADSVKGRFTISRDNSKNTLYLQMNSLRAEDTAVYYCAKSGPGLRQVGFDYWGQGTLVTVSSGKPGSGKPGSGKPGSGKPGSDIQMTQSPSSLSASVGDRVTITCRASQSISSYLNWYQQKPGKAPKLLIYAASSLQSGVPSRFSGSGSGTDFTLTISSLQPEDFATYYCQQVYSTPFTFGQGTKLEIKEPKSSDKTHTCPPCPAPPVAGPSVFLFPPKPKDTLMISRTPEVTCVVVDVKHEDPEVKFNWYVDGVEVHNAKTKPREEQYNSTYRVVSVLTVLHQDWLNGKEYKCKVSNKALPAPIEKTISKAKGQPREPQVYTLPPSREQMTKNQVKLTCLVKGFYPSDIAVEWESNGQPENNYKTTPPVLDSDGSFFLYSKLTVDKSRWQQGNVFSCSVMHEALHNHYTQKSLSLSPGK
light: B2 light with Q30S, T32S, T57S
Regarding B8, the Kd with human PDL1 antigen [7] came to 2.6 nM; with cynomolgus PDL1 antigen [6], 2.2 nM; with human PDL1 antigen [8], 2.6 nM.
